From patent US12606638B2, “Dosing regimens for use with PCSK9 inhibitors” (Sanofi Biotechnology, priority 2013, dated 2026)
Several values for one entry are separate records, joined by “and”; a condition that tells them apart may be missing. Equal values may be shown once. Read-outs that look alike come from different tables or passages of the source.

Experiments:
healthy subjects [1] = assay: Phase 1 study in healthy subjects: pharmacodynamic profile (serum lipid parameters) of alirocumab alone or on top of ezetimibe or fenofibrate; type: in vivo, human; conditions: for Percent change in LDL-C during the run-in period (Day −29 to Day −1): ezetimibe 10 mg/day or fenofibrate 160 mg/day alone, before alirocumab, value on Day −1, mean (SEM); for Mean percent change in LDL-C from Day −1 baseline to Day 71: additional baseline Day −1 (start of alirocumab injection); for Mean percent change in LDL-C from Day −29 baseline to Day 71: main baseline Day −29 (start of placebo/EZE/FENO run-in), Day 71 = 14 days after 3rd alirocumab dose, 150 mg SC Q4W, N=24
Method: (§1) The primary objective of the study was to assess the pharmacodynamic profile of alirocumab administered either alone or on top of ezetimibe or fenofibrate, based on low density lipoprotein cholesterol (LDL-C).
The study evaluated 72 healthy subjects.
Alirocumab was administered subcutaneously in the abdomen.
Ezetimibe was formulated as a 10 mg over-encasulated tablet (and matching placebo ezetimibe capsule). Ezetimibe was administered orally.
Fenofibrate was formulated at a 160 mg coated tablet. Fenofibrate was administered orally during a meal.
The duration of treatment was as follows.
The pharmacodynamic criteria were as follows. The primary endpoint was percent change in calculated serum LDL-C from baseline (D-29). The secondary endpoints were absolute change from baseline in calculated LDL-C, total cholesterol (TC), high density lipoprotein cholesterol (HDL-C), non-HDL-C, triglycerides (TG), apolipoprotein B (ApoB), apolipoprotein A1 (ApoA1), and lipoprotein a (Lp[a]) analyzed in percent and absolute change from baseline.
The blood sampling for lipid parameters (ie, LDL-C, TC, HDL-C, non-HDL-C, TG, ApoB, ApoA1, Lp[a]) were performed in the morning, in the fasted condition (at least 10-hours fasted and refrained from smoking), before any drug intake.
Blood samples were collected at screening; Day −1 of the run-in phase; and Days 8, 15, 22, 29±1, 57±1, 64±1, 71±1, 78±1, 85±1, 99±2, and 120±3 of the treatment phase.

free PCSK9 = assay: Phase 1 study: circulating levels of free PCSK9; type: in vivo, human; conditions: for Free PCSK9 level at end of run-in period: prior to alirocumab treatment, from 152 (FENO) and 151 (EZE) at start of run-in
Source text: as §1

[2] = system: patients with genotype-confirmed hoFH; conditions: ezetimibe 10 mg/day added to maximal dose of statins; cited from earlier work
healthy subjects [3] = assay: Phase 1 study: safety (adverse events, laboratory, vital signs, ECG); conditions: for Patients with any TEAEs, %: N = 24 per group
[4] = in vivo
[5] = in vivo; remark: listed apart in the source
Method: Samples for the determination of anti-drug antibody (ADA) levels in serum were collected at Day −28 of the run-in phase; Days 29, 57, 85, and 120 of the treatment phase; and the EOS visit.
In neat serum samples, the validated lower limit of detection was approximately 1.5 ng/mL.

[6] = additional baseline Day −1, 14 days after 3rd alirocumab dose
[7] = listed as Alirocumab 150 mg Q4W + placebo
[8] = main baseline Day −29, 14 days after 3rd alirocumab dose
[9] = median, additional baseline Day −1, 14 days after 3rd alirocumab dose
[10] = median, main baseline Day −29, 14 days after 3rd alirocumab dose

In the case of O=C1[C@H](CC[C@H](O)c2ccc(F)cc2)[C@@H](c2ccc(O)cc2)N1c1ccc(F)cc1 [ezetimibe], the “Percent change in LDL-C during the run-in period (Day −29 to Day −1)” value (healthy subjects [1]) is listed as −19.8 (2.1) %, the “Free PCSK9 level at end of run-in period” value (free PCSK9) is listed as 142 ng/mL and the “Total reduction of LDL-C levels” value [2] is listed as 27%.

For CC(C)OC(=O)C(C)(C)Oc1ccc(C(=O)c2ccc(Cl)cc2)cc1 [fenofibrate, reference compound], the “Percent change in LDL-C during the run-in period (Day −29 to Day −1)” value (healthy subjects [1]) was −25.9 (3.2) % and the “Free PCSK9 level at end of run-in period” value (free PCSK9) was 217 ng/mL.

With alirocumab the “Percent change in LDL-C from Day −1 baseline to Day 85” value (healthy subjects [1]; 28 days after the 3rd administration of alirocumab) was −47.03%, the “Mean percent change in LDL-C from Day −1 baseline to Day 71” value (healthy subjects [1]; 14 days after 3rd alirocumab dose, listed as Alirocumab 150 mg Q4W + placebo) was −47.4% and the “Mean percent change in LDL-C from Day −1 baseline to Day 71” value (healthy subjects [1]; 14 days after 3rd alirocumab dose, listed as alirocumab alone) was −47.39% and −47.4 (3.2) %. For the same compound, the “Mean percent change in Apolipoprotein B from Day −1 baseline to Day 71” value (healthy subjects [1]; [6]) was −38.4%, the “Mean percent change in HDL-C from Day −1 baseline to Day 71” value (healthy subjects [1]; [6]) was 3.6% and the “Mean percent change in Non-HDL-C from Day −1 baseline to Day 71” value (healthy subjects [1]; [6]) was −43.0%. For the same compound, the “Mean percent change in Total cholesterol from Day −1 baseline to Day 71” value (healthy subjects [1]; [6]) was −31.5%, the “LDL-C reductions, sustained over the 28-day dosing interval” value (healthy subjects [1]; alirocumab 150 mg Q4W monotherapy, regardless of baseline) was ~48% and the “Mean percent change in LDL-C from Day −29 baseline to Day 71” value (healthy subjects [1]; [7]) was −48.2%. The “Mean percent change in LDL-C from Day −29 baseline to Day 71” value (healthy subjects [1]; listed as alirocumab alone) was −47.59% and −48.2 (2.3) %, the “Mean percent change in Apolipoprotein B from Day −29 baseline to Day 71” value (healthy subjects [1]; [8]) was −39.1% and the “Mean percent change in HDL-C from Day −29 baseline to Day 71” value (healthy subjects [1]; [8]) was 3.3%. For the same compound, the “Mean percent change in Non-HDL-C from Day −29 baseline to Day 71” value (healthy subjects [1]; [8]) was −43.0%, the “Mean percent change in Total cholesterol from Day −29 baseline to Day 71” value (healthy subjects [1]; [8]) was −31.6% and the “Median percent change in Lipoprotein (a) from Day −1 baseline to Day 71” value (healthy subjects [1]; [9]) was −11.7%. For the same compound, the “Median percent change in Triglycerides from Day −1 baseline to Day 71” value (healthy subjects [1]; [9]) was −3.9%, the “Median percent change in Lipoprotein (a) from Day −29 baseline to Day 71” value (healthy subjects [1]; [10]) was −20.3% and the “Median percent change in Triglycerides from Day −29 baseline to Day 71” value (healthy subjects [1]; [10]) was 5.7%. For the same compound, the “Effect on free PCSK9 after alirocumab injection” value (free PCSK9; after the 1st and 3rd alirocumab injections) was “complete suppression”, the “Abdominal pain (TEAE), %” value (healthy subjects [3]; N = 24) was “(8.3) %” and the “Gastroenteritis viral (TEAE), %” value (healthy subjects [3]; N = 24) was “(0) %”. For the same compound, the “Headache (TEAE), %” value (healthy subjects [3]; N = 24) was “(12.5) %”, the “Influenza (TEAE), %” value (healthy subjects [3]; N = 24) was “(8.3) %” and the “Influenza-like illness (TEAE), %” value (healthy subjects [3]; N = 24) was “(4.2) %”. For the same compound, the “Nasopharyngitis (TEAE), %” value (healthy subjects [3]; N = 24) was “(12.5) %”, the “Patients with any TEAEs, %” value (healthy subjects [3]; [7]) was “(50.0) %” and the “Patients with any TEAEs, %” value (healthy subjects [3]; listed as alirocumab alone) was 50.0%. For the same compound, the Tolerability (healthy subjects [3]; alone or on top of ezetimibe or fenofibrate, 150 mg Q4W for 3 administrations, healthy subjects) was “well tolerated”, the “AUClast, Geometric Mean” value ([4]; human) was “(306) [38.4] mg · day/l” and the “AUClast, Mean ± SD” value ([4]; human) was 326 ± 125 mg·days/L. The “CL/F, Mean ± SD” value ([4]; human) was 0.312 ± 0.124 L/day, the “Cmax, Mean ± SD” value ([4]; human) was 24300 ± 8610 ng/mL and the “MRT, Geometric Mean” value ([4]; human) was “(18.2) [20.7] day”. The “MRT, Mean ± SD” value ([4]; human) was 18.5 ± 3.84 days, the “t1/2z, Geometric Mean” value ([4]; human) was “(8.37) [35.7] day” and the “t1/2z, Mean ± SD” value ([4]; human) was 8.76 ± 3.12 days. The “Cmax, Mean ± SD” value ([4]; human, sc, 150 mg) was 20400 ± 13500 ng/mL, the “AUC, Geometric Mean” value [4] was “(318) [58.9]^b mg · day/l” and the “AUC, Mean ± SD” value [4] was 357 ± 210 mg·days/L. For the same compound, the “AUCExt (percentage of extrapolation of AUC), Geometric Mean” value [4] was “(22) [44.7] %”, the “AUCExt (percentage of extrapolation of AUC), Mean ± SD” value [4] was 25 ± 11% and the “tlast, Median” value [4] was 69.00 days. The “Subjects tested ADA positive, %” value [5] was 16.7% and the “Subjects tested ADA positive, number” value [5] was “Four out of 24”.
